Test [1] concerns the target T1, cynomolgus transferrin receptor (TfR) ectodomain (ECD) (cynomolgus, UniProt Q5RDH6 121-760 (Pongo abelii entry), biotinylated where captured on streptavidin).
T1 construct: also called cyno TfR; cynoTfR; not shown: C-terminal cleavable His- and Avi-tags
T1 chain: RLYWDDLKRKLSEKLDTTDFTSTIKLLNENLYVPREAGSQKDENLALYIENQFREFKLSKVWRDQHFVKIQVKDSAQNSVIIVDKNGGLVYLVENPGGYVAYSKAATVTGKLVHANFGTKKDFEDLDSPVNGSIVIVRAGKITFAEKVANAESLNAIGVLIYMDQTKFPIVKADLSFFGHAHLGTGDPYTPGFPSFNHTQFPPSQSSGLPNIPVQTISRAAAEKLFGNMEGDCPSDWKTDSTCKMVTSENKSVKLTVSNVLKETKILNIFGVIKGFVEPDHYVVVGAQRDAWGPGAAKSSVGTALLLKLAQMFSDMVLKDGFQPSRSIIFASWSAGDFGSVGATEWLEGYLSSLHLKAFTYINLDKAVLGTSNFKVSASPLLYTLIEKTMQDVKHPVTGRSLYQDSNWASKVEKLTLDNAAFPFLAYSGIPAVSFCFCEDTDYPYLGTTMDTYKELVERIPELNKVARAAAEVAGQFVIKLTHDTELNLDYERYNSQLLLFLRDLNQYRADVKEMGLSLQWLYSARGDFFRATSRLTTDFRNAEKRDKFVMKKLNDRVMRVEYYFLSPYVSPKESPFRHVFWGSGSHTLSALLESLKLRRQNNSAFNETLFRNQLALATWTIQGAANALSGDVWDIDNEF
Kind of test: yeast surface display flow cytometry; yeast-displayed clone stained with 250 nM biotinylated cyno TfR, neutravidin-AF647; median fluorescence intensity. As to the method:
(§1) For each clone, two million cells were washed three times in PBS+0.5% BSA at pH 7.4. […] Cells were stained with nuetravidin-Alexafluor647 (AF647) for 30 minutes at 4° C., then washed twice again. Expression was measured using anti-c-myc antibody with anti-chicken-Alexfluor488 (AF488) secondary antibody. Cells were resuspended, and median fluorescence intensity (MFI) of AF647 and AF488 was measured on a BD FACS CantoII. MFI was calculated for the TfR-binding population for each population and plotted with human TfR, cyno TfR, or control binding (FIG. 44).
On the technique in general: In flow cytometry, cells or beads pass a laser one at a time.

Test [2] has as its target T2, human transferrin receptor (TfR) ectodomain (ECD) (human, UniProt P02786 121-760, biotinylated where captured on streptavidin).
T2 construct: also called human TfR; huTfR; not shown: C-terminal cleavable His- and Avi-tags
The test is described as follows: yeast surface display flow cytometry; yeast-displayed clone stained with 250 nM biotinylated human TfR, neutravidin-AF647; median fluorescence intensity. As to the method: as §1

B1: 3.2-14 (designed binder)
modified Fc polypeptide displayed on yeast (c-Myc tagged): PCPAPELLGGPSVFLFPPKPKDTLMISRTPEVTCVVVDVSHEDPEVKFNWYVDGVEVHNAKTKPREEQYNSTYRVVSVLTVLHQDWLNGKEYKCKVSNKALPAPIEKTISKAKGQPREPQVYTLPPSRDELTKNQVSLTCLVKGFYPSDIAVEWESLGHVWVGVKTTPPVLDSDGSFFLYSKLTVPKSTWQQGWVFSCSVMHEALHNHYTQKSLSLSPGK
notes: also called CH3C.3.2-14
In the case of B1, the binding result in test [1] and in test [2] was “binds” throughout.

B2: 3.2-1 (designed binder)
modified Fc polypeptide displayed on yeast (c-Myc tagged): PCPAPELLGGPSVFLFPPKPKDTLMISRTPEVTCVVVDVSHEDPEVKFNWYVDGVEVHNAKTKPREEQYNSTYRVVSVLTVLHQDWLNGKEYKCKVSNKALPAPIEKTISKAKGQPREPQVYTLPPSRDELTKNQVSLTCLVKGFYPSDIAVEWESLGHVWVNFKTTPPVLDSDGSFFLYSKLTVPKSTWQQGWVFSCSVMHEALHNHYTQKSLSLSPGK
notes: also called CH3C.3.2-1
With B2, the binding result in test [1] and in test [2] was “binds” in each case.

B3: 3.1-3 (designed binder)
modified Fc polypeptide displayed on yeast (c-Myc tagged): PCPAPELLGGPSVFLFPPKPKDTLMISRTPEVTCVVVDVSHEDPEVKFNWYVDGVEVHNAKTKPREEQYNSTYRVVSVLTVLHQDWLNGKEYKCKVSNKALPAPIEKTISKAKGQPREPQVYTLPPSRDELTKNQVSLTCLVKGFYPSDIAVEWESLGHVWVATKTTPPVLDSDGSFFLYSKLTVPKSTWQQGWVFSCSVMHEALHNHYTQKSLSLSPGK
notes: also called CH3C.3.1-3
For the molecule B3, the binding result in test [1] and in test [2] was “binds” each time.

B4: 3.2-19 (designed binder)
modified Fc polypeptide displayed on yeast (c-Myc tagged): PCPAPELLGGPSVFLFPPKPKDTLMISRTPEVTCVVVDVSHEDPEVKFNWYVDGVEVHNAKTKPREEQYNSTYRVVSVLTVLHQDWLNGKEYKCKVSNKALPAPIEKTISKAKGQPREPQVYTLPPSRDELTKNQVSLTCLVKGFYPSDIAVEWESLGHVWVNQKTTPPVLDSDGSFFLYSKLTVPKSTWQQGWVFSCSVMHEALHNHYTQKSLSLSPGK
notes: also called CH3C.3.2-19
Turning to B4, the binding result in test [1] and in test [2] was “binds” each time.

B5: 3.2-3 (designed binder)
modified Fc polypeptide displayed on yeast (c-Myc tagged): PCPAPELLGGPSVFLFPPKPKDTLMISRTPEVTCVVVDVSHEDPEVKFNWYVDGVEVHNAKTKPREEQYNSTYRVVSVLTVLHQDWLNGKEYKCKVSNKALPAPIEKTISKAKGQPREPQVYTLPPSRDELTKNQVSLTCLVKGFYPSDIAVEWESLGHVWVEQKTTPPVLDSDGSFFLYSKLTVPKSTWQQGWVFSCSVMHEALHNHYTQKSLSLSPGK
notes: also called CH3C.3.2-3
For the molecule B5, the binding result in test [1] and in test [2] was “binds” in each case.

B6: 3.2-17 (designed binder)
modified Fc polypeptide displayed on yeast (c-Myc tagged): PCPAPELLGGPSVFLFPPKPKDTLMISRTPEVTCVVVDVSHEDPEVKFNWYVDGVEVHNAKTKPREEQYNSTYRVVSVLTVLHQDWLNGKEYKCKVSNKALPAPIEKTISKAKGQPREPQVYTLPPSRDELTKNQVSLTCLVKGFYPSDIAVEWESLGHVWVGTKTTPPVLDSDGSFFLYSKLTVPKSTWQQGWVFSCSVMHEALHNHYTQKSLSLSPGK
notes: also called CH3C.3.2-17
B6: the binding result in test [1] and in test [2] was “binds” throughout.

B7: 3.2-5 (designed binder)
modified Fc polypeptide displayed on yeast (c-Myc tagged): PCPAPELLGGPSVFLFPPKPKDTLMISRTPEVTCVVVDVSHEDPEVKFNWYVDGVEVHNAKTKPREEQYNSTYRVVSVLTVLHQDWLNGKEYKCKVSNKALPAPIEKTISKAKGQPREPQVYTLPPSRDELTKNQVSLTCLVKGFYPSDIAVEWESLGHVWVDQKTTPPVLDSDGSFFLYSKLTVPKSTWQQGWVFSCSVMHEALHNHYTQKSLSLSPGK
notes: also called CH3C.3.2-5
For the molecule B7, the binding result in test [1] and in test [2] was “binds” each time.

B8: 3.4-26 (designed binder)
modified Fc polypeptide displayed on yeast (c-Myc tagged): PCPAPELLGGPSVFLFPPKPKDTLMISRTPEVTCVVVDVSHEDPEVKFNWYVDGVEVHNAKTKPREEQYNSTYRVVSVLTVLHQDWLNGKEYKCKVSNKALPAPIEKTISKAKGQPREPQVYTLPPSRDELTKNQVSLTCLVKGFYPSDIAVEWESWGTVWGTYKTTPPVLDSDGSFFLYSKLTVPKSNWQQGYVFSCSVMHEALHNHYTQKSLSLSPGK
notes: also called CH3C.3.4-26
As to B8, the binding result in test [1] and in test [2] was “binds” throughout.

B9: 3.2-24 (designed binder)
modified Fc polypeptide displayed on yeast (c-Myc tagged): PCPAPELLGGPSVFLFPPKPKDTLMISRTPEVTCVVVDVSHEDPEVKFNWYVDGVEVHNAKTKPREEQYNSTYRVVSVLTVLHQDWLNGKEYKCKVSNKALPAPIEKTISKAKGQPREPQVYTLPPSRDELTKNQVSLTCLVKGFYPSDIAVEWESLGHVWVHTKTTPPVLDSDGSFFLYSKLTVPKSTWQQGWVFSCSVMHEALHNHYTQKSLSLSPGK
notes: also called CH3C.3.2-24
On to B9, for which the binding result in test [1] and in test [2] was “binds” each time.

B10: CH3C.35 (designed binder)
modified Fc polypeptide displayed on yeast (c-Myc tagged): PCPAPELLGGPSVFLFPPKPKDTLMISRTPEVTCVVVDVSHEDPEVKFNWYVDGVEVHNAKTKPREEQYNSTYRVVSVLTVLHQDWLNGKEYKCKVSNKALPAPIEKTISKAKGQPREPQVYTLPPSRDELTKNQVSLTCLVKGFYPSDIAVEWESYGTEWSSYKTTPPVLDSDGSFFLYSKLTVTKSEWQQGFVFSCSVMHEALHNHYTQKSLSLSPGK
With B10, the binding result in test [1] and in test [2] was “binds” throughout.

B11: 3.4-1 (designed binder)
modified Fc polypeptide displayed on yeast (c-Myc tagged): PCPAPELLGGPSVFLFPPKPKDTLMISRTPEVTCVVVDVSHEDPEVKFNWYVDGVEVHNAKTKPREEQYNSTYRVVSVLTVLHQDWLNGKEYKCKVSNKALPAPIEKTISKAKGQPREPQVYTLPPSRDELTKNQVSLTCLVKGFYPSDIAVEWESWGFVWSTYKTTPPVLDSDGSFFLYSKLTVPKSNWQQGFVFSCSVMHEALHNHYTQKSLSLSPGK
notes: also called CH3C.3.4-1
B11: the binding result in test [1] and in test [2] was “binds” each time.

B12: 3.4-19 (designed binder)
modified Fc polypeptide displayed on yeast (c-Myc tagged): PCPAPELLGGPSVFLFPPKPKDTLMISRTPEVTCVVVDVSHEDPEVKFNWYVDGVEVHNAKTKPREEQYNSTYRVVSVLTVLHQDWLNGKEYKCKVSNKALPAPIEKTISKAKGQPREPQVYTLPPSRDELTKNQVSLTCLVKGFYPSDIAVEWESWGHVWSTYKTTPPVLDSDGSFFLYSKLTVPKSNWQQGYVFSCSVMHEALHNHYTQKSLSLSPGK
notes: also called CH3C.3.4-19
In the case of B12, the binding result in test [1] and in test [2] was “binds” in each case.
